Laboratory results from publication PMC3912200, “Structural and Functional Characterization of Cargo-Binding Sites on the μ4-Subunit of Adaptor Protein Complex 4” (PLoS ONE, 2014).

B1: F188A: μ4 mutant, μ2-binding site, Y2H construct (protein)
chain: MISQFFILSSKGDPLIYKDFRGDSGGRDVAELFYRKLTGLPGDESPVVMHHHGRHFIHIRHSGLYLVVTTSENVSPFSLLELLSRLATLLGDYCGSLGEGTISRNVALVYELLDEVLDYGYVQTTSTEMLRNFIQTEAVVSKPFSLFDLSSVGLFGAETQQSKVAPSSAASRPVLSSRSDQSQKNEVALDVVERLSVLIASNGSLLKVDVQGEIRLKSFLPSGSEMRIGLTEEFCVGKSELRGYGPGIRVDEVSFHSSVNLDEFESHRILRLQPPQGELTVMRYQLSDDLPSPLPFRLFPSVQWDRGSGRLQVYLKLRCDLLSKSQALNVRLHLPLPRGVVSLSQELSSPEQKAELAEGALRWDLPRVQGGSQLSGLFQMDVPGPPGPPSHGLSTSASPLGLGPASLSFELPRHTCSGLQVRFLRLAFRPCGNANPHKWVRHLSHSDAYVIRI
modifications: left off: Gal4 activation domain, end not stated, kept
B2: D190S: μ4 mutant, μ2-binding site, Y2H construct (protein)
chain: MISQFFILSSKGDPLIYKDFRGDSGGRDVAELFYRKLTGLPGDESPVVMHHHGRHFIHIRHSGLYLVVTTSENVSPFSLLELLSRLATLLGDYCGSLGEGTISRNVALVYELLDEVLDYGYVQTTSTEMLRNFIQTEAVVSKPFSLFDLSSVGLFGAETQQSKVAPSSAASRPVLSSRSDQSQKNEVFLSVVERLSVLIASNGSLLKVDVQGEIRLKSFLPSGSEMRIGLTEEFCVGKSELRGYGPGIRVDEVSFHSSVNLDEFESHRILRLQPPQGELTVMRYQLSDDLPSPLPFRLFPSVQWDRGSGRLQVYLKLRCDLLSKSQALNVRLHLPLPRGVVSLSQELSSPEQKAELAEGALRWDLPRVQGGSQLSGLFQMDVPGPPGPPSHGLSTSASPLGLGPASLSFELPRHTCSGLQVRFLRLAFRPCGNANPHKWVRHLSHSDAYVIRI
modifications: left off: Gal4 activation domain, end not stated, kept
B3: K217A: μ4 mutant, μ2-binding site, Y2H construct (protein)
chain: MISQFFILSSKGDPLIYKDFRGDSGGRDVAELFYRKLTGLPGDESPVVMHHHGRHFIHIRHSGLYLVVTTSENVSPFSLLELLSRLATLLGDYCGSLGEGTISRNVALVYELLDEVLDYGYVQTTSTEMLRNFIQTEAVVSKPFSLFDLSSVGLFGAETQQSKVAPSSAASRPVLSSRSDQSQKNEVFLDVVERLSVLIASNGSLLKVDVQGEIRLASFLPSGSEMRIGLTEEFCVGKSELRGYGPGIRVDEVSFHSSVNLDEFESHRILRLQPPQGELTVMRYQLSDDLPSPLPFRLFPSVQWDRGSGRLQVYLKLRCDLLSKSQALNVRLHLPLPRGVVSLSQELSSPEQKAELAEGALRWDLPRVQGGSQLSGLFQMDVPGPPGPPSHGLSTSASPLGLGPASLSFELPRHTCSGLQVRFLRLAFRPCGNANPHKWVRHLSHSDAYVIRI
modifications: left off: Gal4 activation domain, end not stated, kept
B4: S254K: μ4 mutant, μ4-binding site, Y2H construct (protein)
chain: MISQFFILSSKGDPLIYKDFRGDSGGRDVAELFYRKLTGLPGDESPVVMHHHGRHFIHIRHSGLYLVVTTSENVSPFSLLELLSRLATLLGDYCGSLGEGTISRNVALVYELLDEVLDYGYVQTTSTEMLRNFIQTEAVVSKPFSLFDLSSVGLFGAETQQSKVAPSSAASRPVLSSRSDQSQKNEVFLDVVERLSVLIASNGSLLKVDVQGEIRLKSFLPSGSEMRIGLTEEFCVGKSELRGYGPGIRVDEVKFHSSVNLDEFESHRILRLQPPQGELTVMRYQLSDDLPSPLPFRLFPSVQWDRGSGRLQVYLKLRCDLLSKSQALNVRLHLPLPRGVVSLSQELSSPEQKAELAEGALRWDLPRVQGGSQLSGLFQMDVPGPPGPPSHGLSTSASPLGLGPASLSFELPRHTCSGLQVRFLRLAFRPCGNANPHKWVRHLSHSDAYVIRI
modifications: left off: Gal4 activation domain, end not stated, kept
B5: T280A: μ4 mutant, μ4-binding site, Y2H construct (protein)
chain: MISQFFILSSKGDPLIYKDFRGDSGGRDVAELFYRKLTGLPGDESPVVMHHHGRHFIHIRHSGLYLVVTTSENVSPFSLLELLSRLATLLGDYCGSLGEGTISRNVALVYELLDEVLDYGYVQTTSTEMLRNFIQTEAVVSKPFSLFDLSSVGLFGAETQQSKVAPSSAASRPVLSSRSDQSQKNEVFLDVVERLSVLIASNGSLLKVDVQGEIRLKSFLPSGSEMRIGLTEEFCVGKSELRGYGPGIRVDEVSFHSSVNLDEFESHRILRLQPPQGELAVMRYQLSDDLPSPLPFRLFPSVQWDRGSGRLQVYLKLRCDLLSKSQALNVRLHLPLPRGVVSLSQELSSPEQKAELAEGALRWDLPRVQGGSQLSGLFQMDVPGPPGPPSHGLSTSASPLGLGPASLSFELPRHTCSGLQVRFLRLAFRPCGNANPHKWVRHLSHSDAYVIRI
modifications: left off: Gal4 activation domain, end not stated, kept
B6: T280R: μ4 mutant, μ4-binding site, Y2H construct (protein)
chain: MISQFFILSSKGDPLIYKDFRGDSGGRDVAELFYRKLTGLPGDESPVVMHHHGRHFIHIRHSGLYLVVTTSENVSPFSLLELLSRLATLLGDYCGSLGEGTISRNVALVYELLDEVLDYGYVQTTSTEMLRNFIQTEAVVSKPFSLFDLSSVGLFGAETQQSKVAPSSAASRPVLSSRSDQSQKNEVFLDVVERLSVLIASNGSLLKVDVQGEIRLKSFLPSGSEMRIGLTEEFCVGKSELRGYGPGIRVDEVSFHSSVNLDEFESHRILRLQPPQGELRVMRYQLSDDLPSPLPFRLFPSVQWDRGSGRLQVYLKLRCDLLSKSQALNVRLHLPLPRGVVSLSQELSSPEQKAELAEGALRWDLPRVQGGSQLSGLFQMDVPGPPGPPSHGLSTSASPLGLGPASLSFELPRHTCSGLQVRFLRLAFRPCGNANPHKWVRHLSHSDAYVIRI
modifications: left off: Gal4 activation domain, end not stated, kept
B7: S257Q: μ4 mutant, μ4-binding site, Y2H construct (protein)
chain: MISQFFILSSKGDPLIYKDFRGDSGGRDVAELFYRKLTGLPGDESPVVMHHHGRHFIHIRHSGLYLVVTTSENVSPFSLLELLSRLATLLGDYCGSLGEGTISRNVALVYELLDEVLDYGYVQTTSTEMLRNFIQTEAVVSKPFSLFDLSSVGLFGAETQQSKVAPSSAASRPVLSSRSDQSQKNEVFLDVVERLSVLIASNGSLLKVDVQGEIRLKSFLPSGSEMRIGLTEEFCVGKSELRGYGPGIRVDEVSFHQSVNLDEFESHRILRLQPPQGELTVMRYQLSDDLPSPLPFRLFPSVQWDRGSGRLQVYLKLRCDLLSKSQALNVRLHLPLPRGVVSLSQELSSPEQKAELAEGALRWDLPRVQGGSQLSGLFQMDVPGPPGPPSHGLSTSASPLGLGPASLSFELPRHTCSGLQVRFLRLAFRPCGNANPHKWVRHLSHSDAYVIRI
modifications: left off: Gal4 activation domain, end not stated, kept

Test system: cytosolic tail of APP
Assay: Yeast two-hybrid (Y2H) analysis of μ4 with the APP tail
Format: binding
Conditions: mutations at μ2-binding site; growth on -His plates, 30°C
Excerpt: The cloning of the tail of APP (residues 649–695), full-length human μ4, and all the other yeast two-hybrid (Y2H) constructs, and the cloning of the C-terminal domain of μ4 for expression in E. coli was described previously. To generate a construct for mammalian expression, full-length human μ4 was obtained by PCR amplification and cloned into the EcoRI and SalI sites of pEGFP-N1 (BD BiosciencesClontech, Mountain View, CA) including a stop-codon before the GFP coding sequence. The cloning of APP-GFP carrying the double mutation F615P/D664A was described previously. Single amino acid substitutions were introduced using the QuikChange mutagenesis kit (Stratagene, La Jolla, CA). Y2H assays were performed as previously described. A set of pCI-neo (Promega) constructs encoding hemagglutinin (HA)-epitope tagged wild-type or mutants of human μ4 was a generous gift of J. Bonifacino and R. Mattera (Cell Biology and Metabolism Program, NICHD, NIH). The nucleotide sequences of all recombinant constructs were confirmed by dideoxy sequencing.
Figure 1 Yeast two-hybrid analysis of the interaction of μ4 with the cytosolic tail of APP. (A) Superposition of the surface and ribbon representations of human wild-type μ4 C-terminal domain (pdb entry 3L81). The insets show an enlargement of the μ4-binding site and the putative μ2-binding site with residues chosen for the yeast two-hybrid (Y2H) analysis. The APP peptide (TYKFFEQ; stick model) bound to the μ4-binding site is in yellow, and the EGFR peptide (FYRALM; stick model; pdb entry 1BW8) superposed to the putative μ2-binding site is in magenta. (B) Sequence alignment of the C-terminal domain of the μ subunits of known crystal structure depicting critical residues at the corresponding μ2- and μ4-binding sites. Disordered loops are in yellow letters, and arrows and cylinders represent β-strands and α-helices, respectively. M.m., Mus musculus; R.n., Rattus norvegicus; H.s., Homo sapiens. (C) and (D) Yeast were co-transformed with plasmids encoding Gal4bd fused to the cytosolic tail of the amyloid precursor protein (APP) indicated on the left, and Gal4ad fused to wild-type or mutant μ4 constructs indicated on top of each panel. (C) Y2H analysis of μ4 with mutations on the YKFFE binding site (μ4-binding site). (D) Y2H analysis of μ4 with mutations on a putative YXXØ binding site (μ2-binding site). Mouse p53 fused to Gal4bd and SV40 large T antigen (T Ag) fused to Gal4ad were used as controls. Co-transformed cells were spotted onto His-deficient (-His) or His-containing (+His) plates and incubated at 30°C. Growth is indicative of interactions. Some mutations on either of the two sites affect the interaction of μ4 with the cytosolic tail of APP.

Molecule	effect of mutation on interaction of the APP tail with μ4 (Y2H)
B1	little or no effect
B2	little or no effect
B3	little or no effect

Same assay, conditions: mutations at μ4-binding site; growth on -His plates, 30°C

Molecule	effect of mutation on binding to the APP YKFFE signal (Y2H)
B4	little or no effects
B5	little or no effects
B6	little or no effects
B7	little or no effects
